Measurements: patent US20020132769A1

Molecular target: fiber on the vector capsid of the adenoviral vector Av3GFP (adenovirus, serotype not stated)
Assay: cell-based or functional assay

In the case of “trimerized sCAR (sCAR followed by a glycine/serine linker, the isoleucine variant GCN4 trimerization domain, and a 6 His Tag; plasmid pGStriCARb) (receptor)”, the % GFP Positive HepG2 cells, Av3GFP + 5 µg trimeric sCAR (Av3GFP alone: 98) is reported as 43%, the % GFP Positive HepG2 cells, Av3GFP + 10 µg trimeric sCAR (Av3GFP alone: 98) is reported as 32% and the % GFP Positive HepG2 cells, Av3GFP + 20 µg trimeric sCAR (Av3GFP alone: 98) is reported as 32%.
